US20220324970A1 (Janssen / Centocor, published 2022)
Where two headings read alike, the source gives them in different places.

T1: hpIgR_D3
T1 construct: HIS-tagged construct from HEK293 cells; also called human pIgR extracellular domain 3 (D3); hD3
T1 HIS-tagged domain construct: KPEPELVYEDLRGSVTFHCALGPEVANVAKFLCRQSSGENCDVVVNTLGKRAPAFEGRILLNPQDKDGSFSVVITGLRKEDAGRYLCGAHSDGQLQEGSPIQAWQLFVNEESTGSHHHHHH

T2: human pIgR extracellular domain 4-domain 5 (D4-D5) (human, UniProt P01833 350-565)
T2 construct: HIS-tagged construct made in HEK293 cells; also called hpIgR domains 4-5
T2 chain: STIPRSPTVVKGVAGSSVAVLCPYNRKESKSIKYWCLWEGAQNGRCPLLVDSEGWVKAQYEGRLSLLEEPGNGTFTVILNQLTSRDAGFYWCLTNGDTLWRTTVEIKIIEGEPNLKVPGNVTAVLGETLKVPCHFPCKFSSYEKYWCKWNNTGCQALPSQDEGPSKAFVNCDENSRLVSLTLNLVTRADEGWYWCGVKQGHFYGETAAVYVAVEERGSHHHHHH

T3: hpIgR_D2-D3
T3 construct: HIS-tagged construct from HEK293 cells; also called human pIgR extracellular domain 2-domain 3 (D2-D3); hD2-D3
T3 HIS-tagged domain construct: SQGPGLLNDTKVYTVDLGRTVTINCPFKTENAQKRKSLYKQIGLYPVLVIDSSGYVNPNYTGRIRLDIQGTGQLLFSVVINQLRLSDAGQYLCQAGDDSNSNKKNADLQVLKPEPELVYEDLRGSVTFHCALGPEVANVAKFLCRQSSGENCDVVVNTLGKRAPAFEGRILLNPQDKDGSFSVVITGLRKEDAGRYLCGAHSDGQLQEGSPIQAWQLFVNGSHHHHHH

B1: VHH10-linker-mono-Fc protein (Fc fusion)
chain: EVQVVESGGGLVQAGGSLRLSCAASGFTFTRYAMGWFRQAPGKERSFVAAISWSGSSAGYGDSVKGRFTISRDNAKNTLYLQMNSLKPEDTAVYYCAADPFNQGYWGQGTQVTVSSEPKTPKPQPQPQLQPQPNPTTESKSPKSPAPELLGGPSVFLFPPKPKDTLMISRTPEVTCVVVDVSHEDPEVKFNWYVDGVEVHNAKTKPREEQYNSTYRVVSVLTVLHQDWLNGKEYKCKVSNKALPAPIEKTISKAKGQPREPQVYTKPPSREEMTKNQVSLSCLVKGFYPSDIAVEWESNGQPENNYKTTVPVLDSDGSFRLASYLTVDKSRWQQGNVFSCSVMHEALHNHYTQKSLSLSPGK
notes: made in CHO cells; also called VHH10-mono-Fc; hpIgR_225
B2: VHH6-linker-mono-Fc protein (Fc fusion)
chain: EVQLVESGGGLVQAGGSLRLSCAVSGSSVSSDAMGWYRQAPGNQRAWVAFISGGGTTTYADSVKGRFTISRDNTKNTVYLHMNSLKPEDTAVYYCNHPLTSRWGQGTQVTVSSEPKTPKPQPQPQLQPQPNPTTESKSPKSPAPELLGGPSVFLFPPKPKDTLMISRTPEVTCVVVDVSHEDPEVKFNWYVDGVEVHNAKTKPREEQYNSTYRVVSVLTVLHQDWLNGKEYKCKVSNKALPAPIEKTISKAKGQPREPQVYTKPPSREEMTKNQVSLSCLVKGFYPSDIAVEWESNGQPENNYKTTVPVLDSDGSFRLASYLTVDKSRWQQGNVFSCSVMHEALHNHYTQKSLSLSPGK
notes: made in CHO cells; also called VHH6-mono-Fc; hpIgR_181

How the values were obtained:
[1] = target: T4, human pIgR extracellular domain (ECD) (human, UniProt P01833 19-638); assay: ECL (MSD), hpIgR-ECD coated, anti-VHH detection
T4 construct: also called hpIgR ECD
T4 sequence (P01833 other isoform, or with tags, fused parts or gaps): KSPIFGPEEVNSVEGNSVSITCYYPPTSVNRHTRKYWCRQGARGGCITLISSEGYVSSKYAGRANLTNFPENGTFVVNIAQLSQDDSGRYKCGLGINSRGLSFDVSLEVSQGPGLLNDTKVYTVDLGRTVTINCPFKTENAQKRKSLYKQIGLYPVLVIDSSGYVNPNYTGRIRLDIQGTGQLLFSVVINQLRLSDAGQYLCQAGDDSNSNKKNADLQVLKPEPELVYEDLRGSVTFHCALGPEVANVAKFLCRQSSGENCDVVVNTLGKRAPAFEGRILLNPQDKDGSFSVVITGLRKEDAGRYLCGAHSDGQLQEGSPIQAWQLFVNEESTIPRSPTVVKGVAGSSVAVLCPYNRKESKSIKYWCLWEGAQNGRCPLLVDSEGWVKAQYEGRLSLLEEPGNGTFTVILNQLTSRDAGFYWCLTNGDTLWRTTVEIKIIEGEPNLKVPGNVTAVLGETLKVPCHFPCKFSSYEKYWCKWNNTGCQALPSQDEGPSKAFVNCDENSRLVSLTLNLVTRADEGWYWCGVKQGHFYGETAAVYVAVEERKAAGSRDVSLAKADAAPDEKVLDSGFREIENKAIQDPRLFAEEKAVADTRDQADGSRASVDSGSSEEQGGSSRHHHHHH
Protocol: To check whether VHH recognizes a buried epitope on pIgR, EC₅₀ values were measured for VHH-mono-Fc molecules binding to hpIgR-ECD protein by electrochemiluminescence using two different detection antibodies, an anti-Fc antibody and an anti-VHH antibody. pIgR ECD (10 μg/ml in PBS) was coated on high-bind MSD plates for 2 hours at RT with 1000 rpm, incubated with blocking buffer for 1 hour at RT, incubated with VHH-mono-Fc molecules (increasing concentrations in PBS) for 2 hours at RT with 1000 rpm, washed 3× with PBT, incubated with ruthenylated secondary antibody (2 μg/ml in PBS) for 1 hour at RT with 1000 rpm, washed 3× with PBT and read plates in 40 ul reading buffer using the MSD imager. EC50 was calculated by fitting log VHH concentration versus log ECLU in Prism (Graphpad). The increase in EC₅₀ (>50-fold) due to anti-VHH detection was used as a measure to determine whether VHH recognized buried epitope on pIgR.

[2] = target: T4, human pIgR extracellular domain (ECD); assay: ECL (MSD), hpIgR-ECD coated, anti-Fc detection
hpIgR_D3 = target: T1, hpIgR_D3; assay: ECL (MSD) heat map, HIS-tagged construct captured via anti-HIS, anti-human-Fc detection;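 further: VHH-mono-Fc molecules tested at 100 µg/ml for 2 h on captured His-tagged pIgR constructs (10 µg/ml), read-out as electrochemiluminescence units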
Protocol: (§1) A meso-scale discovery (MSD) platform was used for conducting epitope mapping and epitope burial studies. To test the binding of VHH-mono-Fc molecules to purified pIgR protein constructs, Streptavidin MSD plates were coated with a biotinylated anti-HIS antibody (2 μg/ml in PBS) for 1 hour at RT with 1000 rpm, washed 3× with PBT (PBS+0.1% Tween-20), incubated with blocking buffer for 1 hour at RT, incubated with His-tagged pIgR proteins (10 μg/ml in PBS) for 2 hours at RT with 1000 rpm, washed 3× with PBT, incubated with VHH-mono-Fc molecules (100 μg/ml in PBS) for 2 hours at RT with 1000 rpm, washed 3× with PBT, incubated with ruthenylated-anti-human-Fc antibody (2 μg/ml in PBS) for 1 hour at RT with 1000 rpm, washed 3× with PBT and read plates in 40 ul reading buffer using the MSD imager. ECLU values were plotted as a heatmap.
(§2) Binding of VHH-mFc molecules were tested to immobilized pIgR constructs by the electrochemiluminescence method.

[3] = target: T5, human pIgR extracellular domain 2 (D2) (human, UniProt P01833 128-242); assay: as above
T5 construct: HIS-tagged construct made in HEK293 cells; also called hpIgR domain 2
Protocol: as §1, §2

[4] = target: T6, human pIgR, full-length, on cells (human, UniProt P01833 19-764); assay: cell-based or functional assay
T6 sequence (P01833 19-764): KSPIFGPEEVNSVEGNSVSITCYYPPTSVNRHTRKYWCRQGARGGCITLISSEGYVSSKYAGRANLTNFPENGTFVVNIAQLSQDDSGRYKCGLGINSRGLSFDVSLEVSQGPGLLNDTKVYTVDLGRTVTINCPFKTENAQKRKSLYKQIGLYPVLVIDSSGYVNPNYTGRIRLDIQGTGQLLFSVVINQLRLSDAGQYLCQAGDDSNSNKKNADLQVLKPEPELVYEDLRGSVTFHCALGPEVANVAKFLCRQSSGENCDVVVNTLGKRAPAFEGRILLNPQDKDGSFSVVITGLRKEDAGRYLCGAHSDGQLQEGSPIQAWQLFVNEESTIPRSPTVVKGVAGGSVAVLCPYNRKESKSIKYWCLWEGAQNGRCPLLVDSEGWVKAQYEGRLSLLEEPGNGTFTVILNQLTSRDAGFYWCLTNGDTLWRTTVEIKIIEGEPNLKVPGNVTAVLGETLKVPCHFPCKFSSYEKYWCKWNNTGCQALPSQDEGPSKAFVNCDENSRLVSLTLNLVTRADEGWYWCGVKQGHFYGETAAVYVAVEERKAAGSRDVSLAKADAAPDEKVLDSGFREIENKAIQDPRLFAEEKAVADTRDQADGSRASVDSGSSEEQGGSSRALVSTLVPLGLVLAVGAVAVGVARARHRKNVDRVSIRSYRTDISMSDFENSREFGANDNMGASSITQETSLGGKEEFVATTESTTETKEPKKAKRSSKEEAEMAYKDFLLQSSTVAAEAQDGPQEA

[5] = target: T6, human pIgR, full-length, on cells; assay: flow cytometry on MDCK-hpIgR cells; summary table, repeats Table 1
Protocol: (§3) Flow Cytometry was performed as follows. To test whether VHH-mono-Fc molecules recognize cell-surface hpIgR, Madin-Darby canine kidney (MDCK) cells engineered to express full-length hpIgR were used. Cells were cultured in Dulbecco's modified Eagle's medium containing 10% fetal calf serum at 37° C. with 5% CO₂. Cells were split into equal fractions (≈70,000 cells) and incubated with increasing concentrations of VHH-mono-Fc molecules for 30 min at 4 C. […] Cells were washed twice with cold staining buffer, resuspended in running buffer and analyzed with an iQue Screener (IntelliCyt Corporation). Binding was assessed by RL1 (A647) Geomeans from the live cell population and EC50 was calculated by fitting log VHH concentration versus MFI in Prism (Graphpad).

[6] = target: T4, human pIgR extracellular domain (ECD); assay: BLI; summary table, repeats Table 1
[7] = target: T4, human pIgR extracellular domain (ECD); assay: BLI (Octet RED384), 1:1 fit, 25 C, PBS
[8] = target: T2, human pIgR extracellular domain …; assay: BLI (Octet RED384), 1:1 fit, 25 C, PBS
hpIgR_D2-D3 [9] = target: T3, hpIgR_D2-D3; assay: ECL (MSD) heat map, HIS-tagged construct captured via anti-HIS, anti-human-Fc detection
Protocol: (§4) The Electrochemiluminescence assay was performed as follows. A meso-scale discovery (MSD) platform was used for conducting epitope mapping and epitope burial studies. To test the binding of VHH-mono-Fc molecules to purified pIgR protein constructs, Streptavidin MSD plates were coated with a biotinylated anti-HIS antibody (2 μg/ml in PBS) for 1 hour at RT with 1000 rpm, washed 3× with PBT (PBS+0.1% Tween-20), incubated with blocking buffer for 1 hour at RT, incubated with His-tagged pIgR proteins (10 μg/ml in PBS) for 2 hours at RT with 1000 rpm, washed 3× with PBT, incubated with VHH-mono-Fc molecules (100 μg/ml in PBS) for 2 hours at RT with 1000 rpm, washed 3× with PBT, incubated with ruthenylated-anti-human-Fc antibody (2 μg/ml in PBS) for 1 hour at RT with 1000 rpm, washed 3× with PBT and read plates in 40 ul reading buffer using the MSD imager. ECLU values were plotted as a heatmap.

[10] = target: T7, human pIgR extracellular domain 5 (D5) (human, UniProt P01833 460-565); assay: as above
T7 construct: HIS-tagged construct made in HEK293 cells; also called hpIgR domain 5
Protocol: as §4

[11] = target: T4, human pIgR extracellular domain (ECD); assay: ECL (MSD), anti-VHH detection against anti-Fc detection
[12] = target: T4, human pIgR extracellular domain (ECD); assay: BLI; summary table, repeats Table 1; remark: listed apart in the source
[13] = target: T4, human pIgR extracellular domain (ECD); assay: BLI (Octet), VHH-mono-Fc and hpIgR ectodomain
[14] = target: T6, human pIgR, full-length, on cells; assay: cell-based or functional assay; remark: listed apart in the source
[15] = target: T6, human pIgR, full-length, on cells; assay: flow cytometry on MDCK-hpIgR cells; summary table, repeats Table 1; remark: listed apart in the source
[16] = target: T4, human pIgR extracellular domain (ECD); assay: BLI (Octet RED384), 1:1 fit, 25 C, PBS; column kdis
[17] = target: T2, human pIgR extracellular domain …; assay: as above
[18] = target: T6, human pIgR, full-length, on cells; assay: flow cytometry on MDCK-hpIgR cells
Protocol: as §3

[19] = target: T4, human pIgR extracellular domain (ECD); assay: BLI (Octet RED384), 1:1 fit, 25 C, PBS; column kdis; remark: listed apart in the source
hpIgR_D2-D3 [20] = target: T3, hpIgR_D2-D3; assay: as above
[21] = target: T8, human pIgR extracellular domain 1-domain 2 (D1-D2) (human, UniProt P01833 19-240); assay: as above
T8 construct: HIS-tagged construct made in HEK293 cells
T8 sequence (P01833 other isoform, or with tags, fused parts or gaps limits assumed): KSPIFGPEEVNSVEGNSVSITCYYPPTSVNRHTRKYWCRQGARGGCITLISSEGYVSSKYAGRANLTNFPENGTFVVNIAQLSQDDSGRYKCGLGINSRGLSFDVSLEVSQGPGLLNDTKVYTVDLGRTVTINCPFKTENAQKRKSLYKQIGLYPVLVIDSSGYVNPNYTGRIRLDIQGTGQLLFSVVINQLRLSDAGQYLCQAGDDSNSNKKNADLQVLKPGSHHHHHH

[22] = target: T5, human pIgR extracellular domain 2 (D2); assay: as above
[23] = target: T6, human pIgR, full-length, on cells; assay: cell-based or functional assay; remark: listed apart in the source
[24] = target: T4, human pIgR extracellular domain (ECD); assay: BLI (Octet RED384), 1:1 fit, 25 C, PBS; remark: listed apart in the source
Protocol: (§5) Bio-layer Interferometry was performed as follows. […] Data were collected with Octet Data Acquisition version 7.1.0.87 (ForteBio) and analyzed using Octet Data Analysis version 7.1 (ForteBio). To measure binding kinetics between VHH-mono-Fc molecules and HIS-tagged pIgR proteins, VHH-mono-Fc was immobilized on amine-reactive generation-2 (ARG2) biosensors according to manufacturer's instructions and increasing concentrations of pIgR proteins were exposed to sensor-immobilized VHH. In some cases, HIS-tagged pIgR proteins were immobilized on anti-HIS biosensors and exposed to increasing concentrations of VHH-mono-Fc molecules. Association and dissociation rates were measured by the shift in wavelength (nm). […] All reactions were performed at 25° C. in PBS.

hpIgR_D2-D3 [25] = target: T3, hpIgR_D2-D3; assay: BLI (Octet RED384), 1:1 fit, 25 C, PBS
Protocol: as §5

[26] = target: T8, human pIgR extracellular domain …; assay: BLI (Octet RED384), 1:1 fit, 25 C, PBS
Protocol: as §5

[27] = target: T5, human pIgR extracellular domain 2 (D2); assay: BLI (Octet RED384), 1:1 fit, 25 C, PBS
Protocol: as §5

[28] = target: T9, human pIgR extracellular domain 1 (D1) (human, UniProt P01833 19-127); assay: ECL (MSD) heat map, HIS-tagged construct captured via anti-HIS, anti-human-Fc detection;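 further: VHH-mono-Fc molecules tested at 100 µg/ml for 2 h on captured His-tagged pIgR constructs (10 µg/ml), read-out as electrochemiluminescence units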
T9 construct: HIS-tagged construct made in HEK293 cells; also called hpIgR domain-1
T9 sequence (P01833 other isoform, or with tags, fused parts or gaps limits assumed): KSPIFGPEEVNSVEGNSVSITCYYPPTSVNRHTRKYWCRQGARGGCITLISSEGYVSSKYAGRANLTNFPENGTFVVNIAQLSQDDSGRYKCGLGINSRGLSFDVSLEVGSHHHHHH
Protocol: as §1, §2

[29] = target: T7, human pIgR extracellular domain 5 (D5); assay: as above; remark: listed apart in the source
Protocol: as §1, §2

[30] = target: T2, human pIgR extracellular domain …; assay: as above
Protocol: as §4

Row | Binder | EC50 [1] | EC50 [2] | binding result (hpIgR_D3) | Transcytosis (Fold Incr.) [4] | EC50 [5] | Kd [6] | Fold change in EC50 [11] | Kd [12] | Kd [13] | For. Trans. (Fold Incr.) [14] | Rev. Trans (Fold Incr.) [14] | EC50 [15] | EC50 [18] | also measured
1 | B1 | 43.9 nM | 17.6 nM | no binding (tested: 100 ug/ml (single concentration)) | 5 fold | 20.4 nM | 256 nM | 2.5 fold | 256 nM | 256 nM | 1.3 fold | 3.4 fold | 20.4 nM | 20.4 nM | binding result [3]: no binding (tested: 100 ug/ml (single concentration)); Kd [7]: 256 nM; kon [7]: 20000 M⁻¹ s⁻¹; Kd [8]: 115 nM; kon [8]: 16300 M⁻¹ s⁻¹; binding result (hpIgR_D2-D3 [9]): no binding (tested: 100 ug/ml (single concentration)); binding result [10]: no binding (tested: 100 ug/ml (single concentration)); koff [16]: 0.00513 s⁻¹; koff [17]: 0.00188 s⁻¹
2 | B2 | 4190 nM | 3.9 nM | no binding (tested: 100 ug/ml (single concentration)) | 30.7 fold | 11.5 nM | 27 nM | 1060 fold | 27 nM | 27 nM | 25.6 fold | 14.6 fold | 11.5 nM | 11.5 nM | koff [19]: 0.00219 s⁻¹; koff (hpIgR_D2-D3 [20]): 0.00249 s⁻¹; koff [21]: 0.00253 s⁻¹; koff [22]: 0.00269 s⁻¹; increase in their apical concentration relative to control VHH (MDCK-hpIgR monolayers) [23]: > 10 fold; Kd [24]: 48.9 nM; kon [24]: 44700 M⁻¹ s⁻¹; Kd (hpIgR_D2-D3 [25]): 71.5 nM; kon (hpIgR_D2-D3 [25]): 34800 M⁻¹ s⁻¹; Kd [26]: 63.2 nM; kon [26]: 40000 M⁻¹ s⁻¹; Kd [27]: 68.1 nM; kon [27]: 39500 M⁻¹ s⁻¹; binding result [28]: no binding (tested: 100 ug/ml (single concentration)); binding result [29]: no binding (tested: 100 ug/ml (single concentration)); binding result [30]: no binding (tested: 100 ug/ml (single concentration))
